Results reported in the RNAGym collection of RNA variant scans (doi:10.1021/acssynbio.7b00057).

B1: Pistol ribozyme (parent)
chain: GGGUCGUUGUUCCAUAAUCGCGUGGAUAUGGCACGCAAGUUUCUACCGGGCACCGUAAAUGUCCGACUGGAGCCGUUCGGGCGGCUAUAAACAGACCUCAGGCCCGAAGCGUGGCGGCACCUGCCGCCGGUGGUAAAAAAGAUCGGAAGAGCACACGUCU

Variants of: B1
Assay: aptazyme ON/OFF ratio, guanine; higher = stronger switching; co-transcriptional cleavage with and without guanine

Variant	aptazyme ON/OFF ratio
GGGUCGCAAGGGCAUAAUCGCGUGGAUAUGGCACGCAAGUUUCUACCGGGCACCGUAAAUGUCCGACUGGAGCCGUUCGGGCGGCUAUAAACAGACCUCAGGCCCGAAGCGUGGCGGCACCUGCCGCCGGUGGUAAAAAAGAUCGGAAGAGCACACGUCU [U7C U8A G9A U10G U11G C12G]	1.29
GGGUCGCAAGGUCAUAAUCGCGUGGAUAUGGCACGCAAGUUUCUACCGGGCACCGUAAAUGUCCGACUGGAGCCGUUCGGGCGGCUAUAAACAGACCUCAGGCCCGAAGCGUGGCGGCACCUGCCGCCGGUGGUAAAAAAGAUCGGAAGAGCACACGUCU [U7C U8A G9A U10G U11G C12U]	1.39
GGGUCGCAAGGCUAUAAUCGCGUGGAUAUGGCACGCAAGUUUCUACCGGGCACCGUAAAUGUCCGACUGGAGCCGUUCGGGCGGCUAUAAACAGACCUCAGGCCCGAAGCGUGGCGGCACCUGCCGCCGGUGGUAAAAAAGAUCGGAAGAGCACACGUCU [U7C U8A G9A U10G U11G C13U]	1.04
GGGUCGCAAGGCAAUAAUCGCGUGGAUAUGGCACGCAAGUUUCUACCGGGCACCGUAAAUGUCCGACUGGAGCCGUUCGGGCGGCUAUAAACAGACCUCAGGCCCGAAGCGUGGCGGCACCUGCCGCCGGUGGUAAAAAAGAUCGGAAGAGCACACGUCU [U7C U8A G9A U10G U11G C13A]	1.11
GGGUCGCAAGGCGAUAAUCGCGUGGAUAUGGCACGCAAGUUUCUACCGGGCACCGUAAAUGUCCGACUGGAGCCGUUCGGGCGGCUAUAAACAGACCUCAGGCCCGAAGCGUGGCGGCACCUGCCGCCGGUGGUAAAAAAGAUCGGAAGAGCACACGUCU [U7C U8A G9A U10G U11G C13G]	1.05
GGGUCGCAAUAGGAUAAUCGCGUGGAUAUGGCACGCAAGUUUCUACCGGGCACCGUAAAUGUCCGACUGGAGCCGUUCGGGCGGCUAUAAACAGACCUCAGGCCCGAAGCGUGGCGGCACCUGCCGCCGGUGGUAAAAAAGAUCGGAAGAGCACACGUCU [U7C U8A G9A U11A C12G C13G]	1.19
GGGUCGCAAUAGAAUAAUCGCGUGGAUAUGGCACGCAAGUUUCUACCGGGCACCGUAAAUGUCCGACUGGAGCCGUUCGGGCGGCUAUAAACAGACCUCAGGCCCGAAGCGUGGCGGCACCUGCCGCCGGUGGUAAAAAAGAUCGGAAGAGCACACGUCU [U7C U8A G9A U11A C12G C13A]	1.15
GGGUCGCAAUAGUAUAAUCGCGUGGAUAUGGCACGCAAGUUUCUACCGGGCACCGUAAAUGUCCGACUGGAGCCGUUCGGGCGGCUAUAAACAGACCUCAGGCCCGAAGCGUGGCGGCACCUGCCGCCGGUGGUAAAAAAGAUCGGAAGAGCACACGUCU [U7C U8A G9A U11A C12G C13U]	1.19
GGGUCGCAAUCACAUAAUCGCGUGGAUAUGGCACGCAAGUUUCUACCGGGCACCGUAAAUGUCCGACUGGAGCCGUUCGGGCGGCUAUAAACAGACCUCAGGCCCGAAGCGUGGCGGCACCUGCCGCCGGUGGUAAAAAAGAUCGGAAGAGCACACGUCU [U7C U8A G9A U11C C12A]	1.23
GGGUCGCAAUCGCAUAAUCGCGUGGAUAUGGCACGCAAGUUUCUACCGGGCACCGUAAAUGUCCGACUGGAGCCGUUCGGGCGGCUAUAAACAGACCUCAGGCCCGAAGCGUGGCGGCACCUGCCGCCGGUGGUAAAAAAGAUCGGAAGAGCACACGUCU [U7C U8A G9A U11C C12G]	1.16
GGGUCGCAAUCCCAUAAUCGCGUGGAUAUGGCACGCAAGUUUCUACCGGGCACCGUAAAUGUCCGACUGGAGCCGUUCGGGCGGCUAUAAACAGACCUCAGGCCCGAAGCGUGGCGGCACCUGCCGCCGGUGGUAAAAAAGAUCGGAAGAGCACACGUCU [U7C U8A G9A U11C]	1.06
GGGUCGCAAUACCAUAAUCGCGUGGAUAUGGCACGCAAGUUUCUACCGGGCACCGUAAAUGUCCGACUGGAGCCGUUCGGGCGGCUAUAAACAGACCUCAGGCCCGAAGCGUGGCGGCACCUGCCGCCGGUGGUAAAAAAGAUCGGAAGAGCACACGUCU [U7C U8A G9A U11A]	1.17
GGGUCGCAAUACUAUAAUCGCGUGGAUAUGGCACGCAAGUUUCUACCGGGCACCGUAAAUGUCCGACUGGAGCCGUUCGGGCGGCUAUAAACAGACCUCAGGCCCGAAGCGUGGCGGCACCUGCCGCCGGUGGUAAAAAAGAUCGGAAGAGCACACGUCU [U7C U8A G9A U11A C13U]	1.14
GGGUCGCAAUACGAUAAUCGCGUGGAUAUGGCACGCAAGUUUCUACCGGGCACCGUAAAUGUCCGACUGGAGCCGUUCGGGCGGCUAUAAACAGACCUCAGGCCCGAAGCGUGGCGGCACCUGCCGCCGGUGGUAAAAAAGAUCGGAAGAGCACACGUCU [U7C U8A G9A U11A C13G]	1.04
GGGUCGCAAUACAAUAAUCGCGUGGAUAUGGCACGCAAGUUUCUACCGGGCACCGUAAAUGUCCGACUGGAGCCGUUCGGGCGGCUAUAAACAGACCUCAGGCCCGAAGCGUGGCGGCACCUGCCGCCGGUGGUAAAAAAGAUCGGAAGAGCACACGUCU [U7C U8A G9A U11A C13A]	1.17
GGGUCGCAAUCAAAUAAUCGCGUGGAUAUGGCACGCAAGUUUCUACCGGGCACCGUAAAUGUCCGACUGGAGCCGUUCGGGCGGCUAUAAACAGACCUCAGGCCCGAAGCGUGGCGGCACCUGCCGCCGGUGGUAAAAAAGAUCGGAAGAGCACACGUCU [U7C U8A G9A U11C C12A C13A]	1.15
GGGUCGCAAUCAGAUAAUCGCGUGGAUAUGGCACGCAAGUUUCUACCGGGCACCGUAAAUGUCCGACUGGAGCCGUUCGGGCGGCUAUAAACAGACCUCAGGCCCGAAGCGUGGCGGCACCUGCCGCCGGUGGUAAAAAAGAUCGGAAGAGCACACGUCU [U7C U8A G9A U11C C12A C13G]	1.15
GGGUCGCAAUCAUAUAAUCGCGUGGAUAUGGCACGCAAGUUUCUACCGGGCACCGUAAAUGUCCGACUGGAGCCGUUCGGGCGGCUAUAAACAGACCUCAGGCCCGAAGCGUGGCGGCACCUGCCGCCGGUGGUAAAAAAGAUCGGAAGAGCACACGUCU [U7C U8A G9A U11C C12A C13U]	1.28

Variant	aptazyme ON/OFF ratio
GGGUCGCAAGGAAAUAAUCGCGUGGAUAUGGCACGCAAGUUUCUACCGGGCACCGUAAAUGUCCGACUGGAGCCGUUCGGGCGGCUAUAAACAGACCUCAGGCCCGAAGCGUGGCGGCACCUGCCGCCGGUGGUAAAAAAGAUCGGAAGAGCACACGUCU [U7C U8A G9A U10G U11G C12A C13A]	1.19
GGGUCGCAAGGAUAUAAUCGCGUGGAUAUGGCACGCAAGUUUCUACCGGGCACCGUAAAUGUCCGACUGGAGCCGUUCGGGCGGCUAUAAACAGACCUCAGGCCCGAAGCGUGGCGGCACCUGCCGCCGGUGGUAAAAAAGAUCGGAAGAGCACACGUCU [U7C U8A G9A U10G U11G C12A C13U]	1.23
GGGUCGCAAGGAGAUAAUCGCGUGGAUAUGGCACGCAAGUUUCUACCGGGCACCGUAAAUGUCCGACUGGAGCCGUUCGGGCGGCUAUAAACAGACCUCAGGCCCGAAGCGUGGCGGCACCUGCCGCCGGUGGUAAAAAAGAUCGGAAGAGCACACGUCU [U7C U8A G9A U10G U11G C12A C13G]	1.14
GGGUCGCAAUAAGAUAAUCGCGUGGAUAUGGCACGCAAGUUUCUACCGGGCACCGUAAAUGUCCGACUGGAGCCGUUCGGGCGGCUAUAAACAGACCUCAGGCCCGAAGCGUGGCGGCACCUGCCGCCGGUGGUAAAAAAGAUCGGAAGAGCACACGUCU [U7C U8A G9A U11A C12A C13G]	1.22
GGGUCGCAAUAAAAUAAUCGCGUGGAUAUGGCACGCAAGUUUCUACCGGGCACCGUAAAUGUCCGACUGGAGCCGUUCGGGCGGCUAUAAACAGACCUCAGGCCCGAAGCGUGGCGGCACCUGCCGCCGGUGGUAAAAAAGAUCGGAAGAGCACACGUCU [U7C U8A G9A U11A C12A C13A]	1.17
GGGUCGCAAUAAUAUAAUCGCGUGGAUAUGGCACGCAAGUUUCUACCGGGCACCGUAAAUGUCCGACUGGAGCCGUUCGGGCGGCUAUAAACAGACCUCAGGCCCGAAGCGUGGCGGCACCUGCCGCCGGUGGUAAAAAAGAUCGGAAGAGCACACGUCU [U7C U8A G9A U11A C12A C13U]	1.08
GGGUCGCAAGGGGAUAAUCGCGUGGAUAUGGCACGCAAGUUUCUACCGGGCACCGUAAAUGUCCGACUGGAGCCGUUCGGGCGGCUAUAAACAGACCUCAGGCCCGAAGCGUGGCGGCACCUGCCGCCGGUGGUAAAAAAGAUCGGAAGAGCACACGUCU [U7C U8A G9A U10G U11G C12G C13G]	1.23
GGGUCGCAAGGGAAUAAUCGCGUGGAUAUGGCACGCAAGUUUCUACCGGGCACCGUAAAUGUCCGACUGGAGCCGUUCGGGCGGCUAUAAACAGACCUCAGGCCCGAAGCGUGGCGGCACCUGCCGCCGGUGGUAAAAAAGAUCGGAAGAGCACACGUCU [U7C U8A G9A U10G U11G C12G C13A]	1.21
GGGUCGCAAGGGUAUAAUCGCGUGGAUAUGGCACGCAAGUUUCUACCGGGCACCGUAAAUGUCCGACUGGAGCCGUUCGGGCGGCUAUAAACAGACCUCAGGCCCGAAGCGUGGCGGCACCUGCCGCCGGUGGUAAAAAAGAUCGGAAGAGCACACGUCU [U7C U8A G9A U10G U11G C12G C13U]	1.2
GGGUCGCAAGGUAAUAAUCGCGUGGAUAUGGCACGCAAGUUUCUACCGGGCACCGUAAAUGUCCGACUGGAGCCGUUCGGGCGGCUAUAAACAGACCUCAGGCCCGAAGCGUGGCGGCACCUGCCGCCGGUGGUAAAAAAGAUCGGAAGAGCACACGUCU [U7C U8A G9A U10G U11G C12U C13A]	1.11
GGGUCGCAAGGUUAUAAUCGCGUGGAUAUGGCACGCAAGUUUCUACCGGGCACCGUAAAUGUCCGACUGGAGCCGUUCGGGCGGCUAUAAACAGACCUCAGGCCCGAAGCGUGGCGGCACCUGCCGCCGGUGGUAAAAAAGAUCGGAAGAGCACACGUCU [U7C U8A G9A U10G U11G C12U C13U]	1.2
GGGUCGCAAGGUGAUAAUCGCGUGGAUAUGGCACGCAAGUUUCUACCGGGCACCGUAAAUGUCCGACUGGAGCCGUUCGGGCGGCUAUAAACAGACCUCAGGCCCGAAGCGUGGCGGCACCUGCCGCCGGUGGUAAAAAAGAUCGGAAGAGCACACGUCU [U7C U8A G9A U10G U11G C12U C13G]	1.14
GGGUCGCAAUAUCAUAAUCGCGUGGAUAUGGCACGCAAGUUUCUACCGGGCACCGUAAAUGUCCGACUGGAGCCGUUCGGGCGGCUAUAAACAGACCUCAGGCCCGAAGCGUGGCGGCACCUGCCGCCGGUGGUAAAAAAGAUCGGAAGAGCACACGUCU [U7C U8A G9A U11A C12U]	1.25
GGGUCGCAAUAGCAUAAUCGCGUGGAUAUGGCACGCAAGUUUCUACCGGGCACCGUAAAUGUCCGACUGGAGCCGUUCGGGCGGCUAUAAACAGACCUCAGGCCCGAAGCGUGGCGGCACCUGCCGCCGGUGGUAAAAAAGAUCGGAAGAGCACACGUCU [U7C U8A G9A U11A C12G]	1.2
GGGUCGCAAUAACAUAAUCGCGUGGAUAUGGCACGCAAGUUUCUACCGGGCACCGUAAAUGUCCGACUGGAGCCGUUCGGGCGGCUAUAAACAGACCUCAGGCCCGAAGCGUGGCGGCACCUGCCGCCGGUGGUAAAAAAGAUCGGAAGAGCACACGUCU [U7C U8A G9A U11A C12A]	1.2
GGGUCGCAAUAUAAUAAUCGCGUGGAUAUGGCACGCAAGUUUCUACCGGGCACCGUAAAUGUCCGACUGGAGCCGUUCGGGCGGCUAUAAACAGACCUCAGGCCCGAAGCGUGGCGGCACCUGCCGCCGGUGGUAAAAAAGAUCGGAAGAGCACACGUCU [U7C U8A G9A U11A C12U C13A]	1.32
GGGUCGCAAUAUGAUAAUCGCGUGGAUAUGGCACGCAAGUUUCUACCGGGCACCGUAAAUGUCCGACUGGAGCCGUUCGGGCGGCUAUAAACAGACCUCAGGCCCGAAGCGUGGCGGCACCUGCCGCCGGUGGUAAAAAAGAUCGGAAGAGCACACGUCU [U7C U8A G9A U11A C12U C13G]	1.18
GGGUCGCAAUAUUAUAAUCGCGUGGAUAUGGCACGCAAGUUUCUACCGGGCACCGUAAAUGUCCGACUGGAGCCGUUCGGGCGGCUAUAAACAGACCUCAGGCCCGAAGCGUGGCGGCACCUGCCGCCGGUGGUAAAAAAGAUCGGAAGAGCACACGUCU [U7C U8A G9A U11A C12U C13U]	1.27
